We go through 125 sequences from the supplement of paper PMC9112550, “Optimization of the antimicrobial peptide Bac7 by deep mutational scanning” (BMC Biology, 2022).
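Further: peptides expressed intracellularly from a pBAD plasmid library in pooled LB shake-flask culture, induced with 0.3% L-arabinose, DNA abundance read by NGS, three biological replicates, DESeq2 with apeglm shrinkage.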

The subject of the data set is Escherichia coli TOP10. In words: shrunken log2 fold change of peptide-encoding DNA abundance (4.5 h post-induction vs induction); higher = less antimicrobial activity (less host growth inhibition). The conditions noted are these: time post-induction: 4.5 h; library: site-saturation at positions 5, 18, 19, 20.
Regarding RRIRCRPPRLPRPRPRPDMWPRP, the “shrunken log2 fold change” value is 0.104.

Regarding RRIRVRPPRLPRPRPRPVDTPRP, the “shrunken log2 fold change” value is -0.18.

With RRIRDRPPRLPRPRPRPKARPRP, the “shrunken log2 fold change” value was 0.132.

Turning to RRIRMRPPRLPRPRPRPWVHPRP, the “shrunken log2 fold change” value is 0.031.

For RRIRRRPPRLPRPRPRPFARPRP, the “shrunken log2 fold change” value was 0.217.

Consider RRIRWRPPRLPRPRPRPERLPRP, for which the “shrunken log2 fold change” value is 0.277.

Consider RRIRKRPPRLPRPRPRPCFEPRP, for which the “shrunken log2 fold change” value was found to be 0.336.

As to RRIRKRPPRLPRPRPRPMRHPRP, the “shrunken log2 fold change” value worked out at 0.0303.

Turning to RRIRSRPPRLPRPRPRPRGEPRP, the “shrunken log2 fold change” value amounted to 0.754.

For the sequence RRIRWRPPRLPRPRPRPRHVPRP, the “shrunken log2 fold change” value was -0.0116.

Regarding RRIRSRPPRLPRPRPRPRVEPRP, the “shrunken log2 fold change” value came out at 0.183.

Consider RRIRIRPPRLPRPRPRPIPKPRP, for which the “shrunken log2 fold change” value was -0.0993.

In the case of RRIRGRPPRLPRPRPRPQESPRP, the “shrunken log2 fold change” value is -0.0432.

RRIRVRPPRLPRPRPRPEGMPRP: the “shrunken log2 fold change” value was 0.326.

In the case of RRIRCRPPRLPRPRPRPTHVPRP, the “shrunken log2 fold change” value stood at 0.437.

For RRIRVRPPRLPRPRPRPECFPRP, the “shrunken log2 fold change” value was 0.195.

With RRIRMRPPRLPRPRPRPTVAPRP, the “shrunken log2 fold change” value was 0.269.

Take RRIRVRPPRLPRPRPRPLQMPRP: the “shrunken log2 fold change” value is 0.312.

For RRIRKRPPRLPRPRPRPAPIPRP, the “shrunken log2 fold change” value came to 0.716.

Regarding RRIRRRPPRLPRPRPRPCVIPRP, the “shrunken log2 fold change” value was -0.0371.

Regarding RRIRNRPPRLPRPRPRPSMKPRP, the “shrunken log2 fold change” value is -0.609.

For RRIRYRPPRLPRPRPRPMCVPRP, the “shrunken log2 fold change” value was -0.227.

For the sequence RRIRGRPPRLPRPRPRPIGVPRP, the “shrunken log2 fold change” value is -0.0542.

RRIRFRPPRLPRPRPRPWHKPRP: the “shrunken log2 fold change” value is -0.413.

With RRIRSRPPRLPRPRPRPQQHPRP, the “shrunken log2 fold change” value is 0.0668.

Consider RRIRNRPPRLPRPRPRPYYYPRP, for which the “shrunken log2 fold change” value was -0.0857.

On to RRIRMRPPRLPRPRPRPARIPRP, for which the “shrunken log2 fold change” value came out at 0.56.

Consider RRIRVRPPRLPRPRPRPCDHPRP, for which the “shrunken log2 fold change” value is -0.338.

On to RRIRNRPPRLPRPRPRPCARPRP, for which the “shrunken log2 fold change” value is -0.213.

Consider RRIRLRPPRLPRPRPRPYEEPRP, for which the “shrunken log2 fold change” value was -0.274.

For RRIRFRPPRLPRPRPRPTYPPRP, the “shrunken log2 fold change” value was -0.497.

As for RRIRQRPPRLPRPRPRPLDRPRP, the “shrunken log2 fold change” value came out at 0.0981.

For RRIRGRPPRLPRPRPRPALWPRP, the “shrunken log2 fold change” value turned out to be 0.985.

In the case of RRIRCRPPRLPRPRPRPDTKPRP, the “shrunken log2 fold change” value was -0.158.

Take RRIRFRPPRLPRPRPRPIFNPRP: the “shrunken log2 fold change” value was -0.0984.

Take RRIRDRPPRLPRPRPRPQPNPRP: the “shrunken log2 fold change” value came to 0.072.

For the sequence RRIRMRPPRLPRPRPRPKIVPRP, the “shrunken log2 fold change” value stood at 0.0132.

Take RRIRNRPPRLPRPRPRPILRPRP: the “shrunken log2 fold change” value is -0.455.

As to RRIRTRPPRLPRPRPRPKDRPRP, the “shrunken log2 fold change” value is -0.196.

RRIRPRPPRLPRPRPRPIKTPRP: the “shrunken log2 fold change” value was found to be 0.0751.

Consider RRIRHRPPRLPRPRPRPWDDPRP, for which the “shrunken log2 fold change” value is -0.0102.

On to RRIRGRPPRLPRPRPRPMSFPRP, for which the “shrunken log2 fold change” value is 0.308.

On to RRIRRRPPRLPRPRPRPNPQPRP, for which the “shrunken log2 fold change” value amounted to 0.631.

For RRIRWRPPRLPRPRPRPIRLPRP, the “shrunken log2 fold change” value is -0.268.

As to RRIRERPPRLPRPRPRPGKYPRP, the “shrunken log2 fold change” value was -0.17.

For RRIRMRPPRLPRPRPRPGTGPRP, the “shrunken log2 fold change” value was 0.596.

With RRIRPRPPRLPRPRPRPIGIPRP, the “shrunken log2 fold change” value came to 0.208.

With RRIRRRPPRLPRPRPRPTWCPRP, the “shrunken log2 fold change” value was determined as 0.0593.

Take RRIRCRPPRLPRPRPRPPEAPRP: the “shrunken log2 fold change” value was 0.968.

For RRIRLRPPRLPRPRPRPGKSPRP, the “shrunken log2 fold change” value is -0.047.

RRIRKRPPRLPRPRPRPWSPPRP: the “shrunken log2 fold change” value came to 0.0668.

RRIRERPPRLPRPRPRPRKEPRP: the “shrunken log2 fold change” value is -0.0305.

As to RRIRGRPPRLPRPRPRPPYLPRP, the “shrunken log2 fold change” value is -0.0342.

As for RRIRVRPPRLPRPRPRPFWHPRP, the “shrunken log2 fold change” value was -0.205.

As for RRIRHRPPRLPRPRPRPFCKPRP, the “shrunken log2 fold change” value was -0.571.

As for RRIRDRPPRLPRPRPRPASPPRP, the “shrunken log2 fold change” value is 0.384.

Regarding RRIRIRPPRLPRPRPRPDWQPRP, the “shrunken log2 fold change” value is -0.00422.

On to RRIRIRPPRLPRPRPRPDYVPRP, for which the “shrunken log2 fold change” value came to 0.012.

For RRIRYRPPRLPRPRPRPGCKPRP, the “shrunken log2 fold change” value was -0.0843.

RRIRQRPPRLPRPRPRPGDYPRP: the “shrunken log2 fold change” value is -0.17.

Turning to RRIRWRPPRLPRPRPRPPNVPRP, the “shrunken log2 fold change” value amounted to 0.0153.

For the sequence RRIRDRPPRLPRPRPRPPGTPRP, the “shrunken log2 fold change” value is 0.435.

With RRIRNRPPRLPRPRPRPQSVPRP, the “shrunken log2 fold change” value is -0.0373.

For the sequence RRIRARPPRLPRPRPRPTCNPRP, the “shrunken log2 fold change” value is 0.327.

For RRIRMRPPRLPRPRPRPAIWPRP, the “shrunken log2 fold change” value stood at 1.36.

For RRIRERPPRLPRPRPRPFNMPRP, the “shrunken log2 fold change” value was -0.236.

As to RRIRCRPPRLPRPRPRPPNWPRP, the “shrunken log2 fold change” value stood at 1.17.

For the sequence RRIRGRPPRLPRPRPRPQEFPRP, the “shrunken log2 fold change” value amounted to 0.27.

For RRIRPRPPRLPRPRPRPHSGPRP, the “shrunken log2 fold change” value is -0.169.

For RRIRQRPPRLPRPRPRPVIQPRP, the “shrunken log2 fold change” value was -0.065.

Regarding RRIRRRPPRLPRPRPRPVRLPRP, the “shrunken log2 fold change” value stood at 1.08.

As for RRIRWRPPRLPRPRPRPRCWPRP, the “shrunken log2 fold change” value is 0.616.

For the sequence RRIRMRPPRLPRPRPRPWPGPRP, the “shrunken log2 fold change” value came out at 0.528.

Regarding RRIRYRPPRLPRPRPRPHWNPRP, the “shrunken log2 fold change” value was -0.799.

As for RRIRSRPPRLPRPRPRPREFPRP, the “shrunken log2 fold change” value is 0.322.

Take RRIRLRPPRLPRPRPRPAIAPRP: the “shrunken log2 fold change” value was determined as 0.118.

As for RRIRARPPRLPRPRPRPCYSPRP, the “shrunken log2 fold change” value is -0.525.

For RRIRYRPPRLPRPRPRPYHCPRP, the “shrunken log2 fold change” value is -0.00776.

As for RRIRSRPPRLPRPRPRPQHRPRP, the “shrunken log2 fold change” value was -0.222.

In the case of RRIRNRPPRLPRPRPRPEQLPRP, the “shrunken log2 fold change” value was found to be 0.389.

Turning to RRIRWRPPRLPRPRPRPSFGPRP, the “shrunken log2 fold change” value is -0.0482.

For the sequence RRIRHRPPRLPRPRPRPGMVPRP, the “shrunken log2 fold change” value worked out at 0.12.

With RRIRYRPPRLPRPRPRPLKKPRP, the “shrunken log2 fold change” value was -0.339.

Turning to RRIRWRPPRLPRPRPRPTTQPRP, the “shrunken log2 fold change” value is -0.0204.

As to RRIRIRPPRLPRPRPRPNQRPRP, the “shrunken log2 fold change” value was 0.00427.

Regarding RRIRNRPPRLPRPRPRPFKYPRP, the “shrunken log2 fold change” value is -0.133.

For RRIRHRPPRLPRPRPRPIFIPRP, the “shrunken log2 fold change” value is -0.372.

Turning to RRIRWRPPRLPRPRPRPVWVPRP, the “shrunken log2 fold change” value is 0.257.

For RRIRMRPPRLPRPRPRPHQGPRP, the “shrunken log2 fold change” value stood at 0.013.

On to RRIRPRPPRLPRPRPRPRYNPRP, for which the “shrunken log2 fold change” value was -0.522.

Take RRIRSRPPRLPRPRPRPPQIPRP: the “shrunken log2 fold change” value turned out to be 0.138.

Consider RRIRNRPPRLPRPRPRPSDHPRP, for which the “shrunken log2 fold change” value was -0.381.

For the sequence RRIRSRPPRLPRPRPRPLMYPRP, the “shrunken log2 fold change” value was -0.197.

As for RRIRIRPPRLPRPRPRPCLNPRP, the “shrunken log2 fold change” value was -0.0496.

Take RRIRERPPRLPRPRPRPRLEPRP: the “shrunken log2 fold change” value was -0.0353.

For the sequence RRIRVRPPRLPRPRPRPCVPPRP, the “shrunken log2 fold change” value stood at 0.124.

With RRIRYRPPRLPRPRPRPEWLPRP, the “shrunken log2 fold change” value was found to be 0.00963.

In the case of RRIRNRPPRLPRPRPRPLCIPRP, the “shrunken log2 fold change” value is -0.598.

In the case of RRIRPRPPRLPRPRPRPTTSPRP, the “shrunken log2 fold change” value was 0.181.

On to RRIRRRPPRLPRPRPRPIPSPRP, for which the “shrunken log2 fold change” value turned out to be 0.247.

In the case of RRIRYRPPRLPRPRPRPTPQPRP, the “shrunken log2 fold change” value was found to be 0.161.

In the case of RRIRSRPPRLPRPRPRPRYHPRP, the “shrunken log2 fold change” value is -0.339.

With RRIRDRPPRLPRPRPRPPRYPRP, the “shrunken log2 fold change” value worked out at 0.244.

Take RRIRERPPRLPRPRPRPPTIPRP: the “shrunken log2 fold change” value is -0.0452.

On to RRIRGRPPRLPRPRPRPYYVPRP, for which the “shrunken log2 fold change” value was -0.0871.

RRIRPRPPRLPRPRPRPFYCPRP: the “shrunken log2 fold change” value is -0.212.

For RRIRYRPPRLPRPRPRPQEMPRP, the “shrunken log2 fold change” value was -0.0143.

Consider RRIRHRPPRLPRPRPRPQSHPRP, for which the “shrunken log2 fold change” value was -0.167.

Turning to RRIRLRPPRLPRPRPRPRPVPRP, the “shrunken log2 fold change” value was found to be 0.637.

Regarding RRIRWRPPRLPRPRPRPLRSPRP, the “shrunken log2 fold change” value was found to be 0.884.

In the case of RRIRHRPPRLPRPRPRPQIIPRP, the “shrunken log2 fold change” value is -0.634.

As to RRIRPRPPRLPRPRPRPAAQPRP, the “shrunken log2 fold change” value is 0.721.

Take RRIRLRPPRLPRPRPRPKFAPRP: the “shrunken log2 fold change” value turned out to be 0.293.

In the case of RRIRCRPPRLPRPRPRPNKKPRP, the “shrunken log2 fold change” value came out at 0.0294.

For the sequence RRIRGRPPRLPRPRPRPDFNPRP, the “shrunken log2 fold change” value turned out to be 0.325.

RRIRMRPPRLPRPRPRPPMWPRP: the “shrunken log2 fold change” value was -0.0434.

RRIRARPPRLPRPRPRPPHSPRP: the “shrunken log2 fold change” value is 0.902.

For RRIRMRPPRLPRPRPRPMGQPRP, the “shrunken log2 fold change” value stood at 0.579.

Regarding RRIRCRPPRLPRPRPRPHSTPRP, the “shrunken log2 fold change” value is -0.698.

For the sequence RRIRPRPPRLPRPRPRPDCEPRP, the “shrunken log2 fold change” value was determined as 0.0556.

Take RRIRWRPPRLPRPRPRPPRHPRP: the “shrunken log2 fold change” value came to 0.608.

As to RRIRFRPPRLPRPRPRPQPMPRP, the “shrunken log2 fold change” value amounted to 0.302.

For the sequence RRIRARPPRLPRPRPRPTPQPRP, the “shrunken log2 fold change” value was found to be 0.745.

RRIRGRPPRLPRPRPRPYYLPRP: the “shrunken log2 fold change” value is -0.791.

Take RRIRNRPPRLPRPRPRPVEEPRP: the “shrunken log2 fold change” value stood at 0.0471.
